Numbered stars: 1 amine (or outer) side, 2 acyl side, 3 side chain; on linkers, the order of the positions; unused ones are H or OH. Bridge positions count the residues as written; N and C are the ends. Square brackets hold non-standard residues; d marks the D form. Primed or numbered codes have the meaning given here. * marks the point of attachment. Ttds″ = 1,13-diamino-4,7,10-trioxatridecan-succinamic acid spacer, O=C(CCC(=O)[*:2])NCCCOCCOCCOCCCN[*:1]; Efa = N-[2-(2-amino-ethanesulfonyl)-ethyl]-succinamic acid, O=C(CCC(=O)[*:2])NCCS(=O)(=O)CCN[*:1]; 3MeBn = 3-Methylbenzylidene (m-xylylene thioether bridge from α,α′-dibromo-m-xylene); Ttds(4) = spacer between chelator and peptide, O=C(CCC(=O)[*:2])NCCCOCCOCCOCCCN[*:1]; N4Ac = 6-Carboxy-1,4,8,11-tetraazaundecane, an N4-chelator, NCCNCC(CNCCN)C(=O)*; NODAGA′ = 1,4,7-triazacyclononane-1-glutaric acid-4,7-diacetic acid chelator; 3MeBn(3) = 3-methylbenzylidene (m-xylylene), from α,α′-dibromo-m-xylene; γGlu = O=C(O)[C@H](CCC(=O)[*:2])N[*:1]; mXylylene = c1cc(C[*:1])cc(C[*:2])c1; PPAc = 4-Carboxymethyl piperazine; Nle = CCCC[C@H](N)C(=O)O; PEG6′ = not defined here; Hexanoyl = CCCCCC(=O)*
B1: Hex-[C(tMeBn(GaNOPO-AET))-PPTEFC]-OH (peptide)
peptide: Hexanoyl-CPPTEFC-OH
modifications: linker 1-7 via tMeBn(GaNOPO-AET); also: gallium-NOPO chelator-AET arm on the linker
notes: also called 3BP-4816
B2: N4Ac-gGlu-Ttds-Nle-[Cys-(3MeBn)-Pro-Pro-Thr-Glu-Phe-Cys]-OH (peptide)
peptide: N4Ac-[γGlu][Ttds″][Nle]CPPTEFC-OH
modifications: linker 4-10 via mXylylene
SMILES: CCCC[C@H](NC(=O)CCC(=O)NCCCOCCOCCOCCCNC(=O)CC[C@H](NC(=O)C(CNCCN)CNCCN)C(=O)O)C(=O)N[C@H]1CSCc2cccc(c2)CSC[C@@H](C(=O)O)NC(=O)[C@H](Cc2ccccc2)NC(=O)[C@H](CCC(=O)O)NC(=O)[C@H]([C@@H](C)O)NC(=O)[C@@H]2CCCN2C(=O)[C@@H]2CCCN2C1=O
notes: also called 3BP-4247
B3: N4Ac-Glu(AGLU′)-Ttds-Nle-[Cys-(3MeBn)-Pro-Pro-Thr-Glu-Phe-Cys]-OH (peptide)
peptide: N4Ac-E[Ttds″][Nle]CPPTEFC-OH
modifications: linker 4-10 via 3MeBn; not fully specified (residue 1); printed as N4Ac--E(AGLU)--Ttds--Nle--[C(3MeBn)-PPTEFC]-OH
notes: also called 3BP-4249

Target: T1, human fibroblast activating protein (FAP) on WI-38 fibroblasts (human, UniProt Q12884 1-760)
T1 construct: FAP-expressing human WI-38 fibroblasts (ECACC)
Assay: competitive FACS on WI-38 cells vs 3 nM Cy5-labeled peptide; pIC50 category B = 7.1-8.0

Row | pIC50 [pic50] | Binder
1 | 7.1 to 8 | B1
2 | 7.1 to 8 | Hexanoyl-CPPTEFC-OH (linker 1-7 via tMeBn(NOPO-AET), also called 3BP-4818) [Hex-[C(tMeBn(NOPO-AET))-PPTEFC]-OH]
3 | 7.1 to 8 | CPPTEFC (N-term Hex-; Cys1 and Cys7 thioether-bridged by tMeBn(NODAGA-AET); C-term -OH, also called 3BP-4695) [Hex-[C(tMeBn(NODAGA-AET))-PPTEFC]-OH]
4 | 7.1 to 8 | {N4Ac-PEG6′-Ttds(4)}-[Nle]CPPTEFC-OH (linker 2-8 via 3MeBn, also called 3BP-4780) [N4Ac-PEG6-Ttds-Nle-[C(3MeBn)-PPTEFC]-OH]
5 | 7.1 to 8 | {N4Ac-PPAc-PEG6′}-[Nle]CPPTEFC-OH (linker 2-8 via 3MeBn, also called 3BP-4781) [N4Ac-PPAc-PEG6-Nle-[C(3MeBn)-PPTEFC]-OH]
6 | 7.1 to 8 | {N4Ac-PPAc-Ttds(4)}-[Nle]CPPTEFC-OH (linker 2-8 via 3MeBn, also called 3BP-4782) [N4Ac-PPAc-Ttds-Nle-[C(3MeBn)-PPTEFC]-OH]
7 | 7.1 to 8 | {NODAGA′-Ttds(4)}-[Nle]CPPTEFC-OH (linker 2-8 via mXylylene, also called 3BP-4714) [NODAGA-Ttds-Nle-[C(3MeBn)-PPTEFC]-OH]
8 | 7.1 to 8 | {NODAGA′-Ttds(4)}-[Nle]CPPTEFC-NH2 (linker 2-8 via mXylylene, also called 3BP-4743) [NODAGA-Ttds-Nle-[C(3MeBn)-PPTEFC]-NH2]

Target: T2, human fibroblast activation protein (FAP) on WI-38 fibroblasts (human, UniProt Q12884 1-760)
T2 construct: FAP-expressing human WI-38 fibroblasts (ECACC)
Assay: competitive FACS, WI-38 cells, Cy5-labeled peptide as competitor; B = pIC50 7.1 to 8.0

Row | pIC50 [pic50] | Binder
9 | 7.1 to 8 | N4Ac-[PEG6′][Nle]CPPTEFC-OH (linker 3-9 via 3MeBn, also called 3BP-4221) [N4Ac-PEG6-Nle-[Cys-(3MeBn)-Pro-Pro-Thr-Glu-Phe-Cys]-OH]
10 | 7.1 to 8 | B2
11 | 7.1 to 8 | B3
12 | 7.1 to 8 | N4Ac-[Efa][Nle]CPPTEFC-OH (linker 3-9 via 3MeBn(3), also called 3BP-4243) [N4Ac-Efa-Nle-[Cys-(3MeBn)-Pro-Pro-Thr-Glu-Phe-Cys]-OH]

Target: T3, Recombinant human FAP (R&D systems, #3715-SE) (human, UniProt Q12884 26-760)
T3 construct: bought; in SPR captured on immobilized anti-FAP antibody MAB3715; also called rhFAP; human recombinant FAP
Assay: SPR (Biacore T200), FAP captured on anti-FAP antibody, single cycle kinetics

Row | pKD Category [pKD] | Binder
13 | > 8 | N4Ac-[PEG6′][Nle]CPPTEFC-OH (linker 3-9 via 3MeBn, also called 3BP-4221) [N4Ac-PEG6-Nle-[Cys-(3MeBn)-Pro-Pro-Thr-Glu-Phe-Cys]-OH]
14 | > 8 | B3

— US20230212549A1 (3B PHARMACEUTICALS, published 2023)
